# In US20160324962A1, “COMPOSITIONS AND METHODS FOR TREATING SARCOMA” (MEDIMMUNE, LLC, priority 2013, published 2016):
# B1: MEDI-573: fully human monoclonal IgG2 lambda antibody that binds IGF-2 with cross reactivity to IGF-1; hybridoma 7.159.2, ATCC PTA-7424 (antibody)
# heavy: QVQLVQSGAEVKKPGASVKVSCKASGYTFTSYDINWVRQATGQGLEWMGWMNPNSGNTGYAQKFQGRVTMTRNTSISTAYMELSSLRSEDTAVYYCARDPYYYYYGMDVWGQGTTVTVSSASTKGPSVFPLAPCSRSTSESTAALGCLVKDYFPEPVTVSWNSGALTSGVHTFPAVLQSSGLYSLSSVVTVPSSNFGTQTYTCNVDHKPSNTKVDKTVERKCCVECPPCPAPPVAGPSVFLFPPKPKDTLMISRTPEVTCVVVDVSHEDPEVQFNWYVDGVEVHNAKTKPREEQFNSTFRVVSVLTVVHQDWLNGKEYKCKVSNKGLPAPIEKTISKTKGQPREPQVYTLPPSREEMTKNQVSLTCLVKGFYPSDIAVEWESNGQPENNYKTTPPMLDSDGSFFLYSKLTVDKSRWQQGNVFSCSVMHEALHNHYTQKSLSLSPGK
# light: QSVLTQPPSVSAAPGQKVTISCSGSSSNIENNHVSWYQQLPGTAPKLLIYDNNKRPSGIPDRFSGSKSGTSATLGITGLQTGDEADYYCETWDTSLSAGRVFGGGTKLTVLGQPKAAPSVTLFPPSSEELQANKATLVCLISDFYPGAVTVAWKADSSPVKAGVETTTPSKQSNNKYAASSYLSLTPEQWKSHRSYSCQVTHEGSTVEKTVAPTECS
# Legend:
# [1] = tested on: pAKT; assay: In vivo mechanism of action study, immunoblot of tumors; parameters: species or system mice
# Experimental: (§1) The in vivo effects of MEDI-573 on IGF signaling were also examined in sarcoma xenografts. To be consistent with in vitro experiments, in vivo pharmacodynamic studies were performed in two ways. First, the effect of MEDI-573 on signaling that was induced by IGF ligands, which were secreted by tumors in an autocrine manner, was examined. A single dose of MEDI-573 was given to mice bearing ˜400 mm^3 RD-ES, SJSA-1, or KHOS/NP tumors.
# (§2) IGF-1/-2 injection did change the baseline level of p4EBP-1.
# (§3) For in vivo mechanism of action (MOA) studies, when tumors reached approximately 400 mm^3, a single dose of MEDI-573 was given. Tumor and plasma samples were collected 4 hr after dosing to assess the effect of MEDI-573 on autocrine IGF signaling. In another set of mice, 6 hr after MEDI-573 dosing, human IGF-1 or IGF-2 was injected by tail-vein. Tumor and plasma samples were collected 15 min after IGFs injection to assess the effect of MEDI-573 on IGF-1/-2 induced signaling.
# [2] = tested on: p4EBP1; assay: as above; parameters: species or system mice
# Experimental: as §1, §2, §3
# [3] = tested on: SAOS2 cells; assay: In vitro cell proliferation (CellTiter-Glo), no exogenous IGF; format: cell-based; details: 3 days
# Experimental: (§4) To determine the effect of treatment with MEDI-573 antibody on the growth of tumor cells, three rhabdomyosarcoma cell lines (RD, SJCRH30, and Hs729); three Ewing's sarcoma cell lines (RD-ES, TC-71, and SK-ES-1), and four osteosarcoma cell lines (SJSA-1, KHOS, MG-63, and SAOS2) were treated with MEDI-573, an anti-IGF antibody, in the absence of exogenous IGF-1 or IGF-2.
# (§5) Sarcoma cell lines were cultured overnight in regular growth medium. The following day, medium containing 0.1% charcoal stripped fetal bovine serum (FBS) was added and the cells incubated overnight. The next day, cells were treated with various amounts of MEDI-573 and the cultures incubated for 3 days. Proliferation was quantified using the CellTiter-Glo (CTG) reagent (Promega, Madison, Wis.).
# [4] = tested on: SJCRH30 cells; assay: as above; format: cell-based; details: 3 days
# Experimental: as §4, §5
# [5] = tested on: RD-ES cells; assay: as above; format: cell-based; details: 3 days
# Experimental: as §4, §5
# [6] = tested on: Hs729 cells; assay: as above; format: cell-based; details: 3 days
# Experimental: as §4, §5
# [7] = tested on: TC-71 cells; assay: as above; format: cell-based; details: 3 days
# Experimental: as §4, §5
# [8] = tested on: SK-ES-1 cells; assay: as above; format: cell-based; details: 3 days
# Experimental: as §4, §5
# [9] = tested on: MG-63 cells; assay: as above; format: cell-based; details: 3 days
# Experimental: as §4, §5
# [10] = tested on: KHOS cells; assay: as above; format: cell-based; details: 3 days
# Experimental: as §4, §5
# [11] = target: T1, IGF-1 in RD-ES tumors (Homo sapiens, UniProt P05019); assay: Free IGF ligands in xenograft tumors (ELISA); format: in vivo, mice; details: different amounts of MEDI-573
# T1 construct: endogenous in cells; host or cells: RD-ES (Ewing's sarcoma) xenograft tumors in athymic nude mice
# T1 sequence (P05019 49-118): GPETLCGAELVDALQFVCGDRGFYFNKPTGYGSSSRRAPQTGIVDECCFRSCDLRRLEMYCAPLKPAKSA
# Experimental: Free IGF ligands were measured in xenograft tumors in untreated mice and in mice treated with different amounts of MEDI-573. […] Despite KHOS cells being unresponsive to IGF-1 and/or IGF-2 stimulation, IGF-2 levels were examined in a KHOS/NP model.
# Sarcoma cell lines were purchased from American type Culture Collection (Manassas, Va.). CellTiter-Glo reagents were obtained from Promega (Madison, Wis.). Whole cell lysate kits for pIGF-1R, pIR-A, and pAKT were purchased from Meso Scale Discovery (MSD; Rockville, Md.). ELISA kits for total IGF-1 and IGF-1R were purchased from R&D Systems (Minneapolis, Minn.). ELISA kits for total IGF-2 were purchased from Insight Genomics (Falls Church, Va.). An ELISA kit for detecting free IGF-1 and IGF-2 was developed in house. Human IGF-1 and IGF-2 were obtained from R&D Systems (Minneapolis, Minn.). Antibodies for detecting phospho-AKT, phospho-4EBP1, phospho-S6K, and GAPDH were from Cell Signaling Technology (Beverly, Mass.).
# [12] = tested on: clone 32 (C32) tumors; assay: Growth of implanted tumors in mice; format: in vivo; details: C32 tumors overexpressing hIGF II and hIGF-1R
# Description: (§6) MEDI 573 selectively binds to human insulin-like growth factor (hIGF)-I and hIGF-2 and […]. MEDI-573 targets the IGF-1 and IGF-2 ligands and thereby inhibits IGF-mediated signal transduction. […] Furthermore, MEDI-573 has potential to achieve this without perturbing glucose homeostasis, which has been an adverse effect observed with investigational agents that target IGF 1R. The results of in vitro studies have shown that MEDI-573 inhibited both IGF-1 and IGF-2-stimulated phosphorylation of IGF 1R and that of downstream signaling proteins including Akt and MAPK in a number of engineered mouse embryonic fibroblast NIH-3T3 cell lines transfected to express human IGF-1R and either human IGF-1/-2. Furthermore, MEDI-573 inhibited autocrine phosphorylation of these signaling molecules.
# [13] = tested on: IGF 1R phosphorylation; assay: IGF-stimulated phosphorylation in engineered NIH-3T3 cell lines; format: cell-based; details: NIH-3T3 cell lines expressing human IGF-1R and human IGF-1/-2
# Description: as §6
# [14] = tested on: RD-ES cells; assay: Cytotoxicity assay, MEDI-573 and mTOR inhibitors; format: cell-based; details: agents alone or in combination (FIG. 14)
# [15] = tested on: IGF-1R phosphorylation; assay: pIGF-1R assay in sarcoma cells (MSD); format: cell-based
# Experimental: When exogenous IGF-1 or IGF-2 was added to cells, there was an induction of phosphorylation of IGF-1R and IR-A in all cells examined.
# The sarcoma lines were cultured overnight in complete medium. The following day, medium containing 0.1% charcoal stripped fetal bovine serum (FBS) was added to the cultures and the cultures incubated overnight. The next day, cells were treated with various treatments for 5 minutes. Media was removed; cells were washed and lysed with 1.0% Triton X lysis buffer with protease and phosphatase inhibitors. Approximately 8-20 μg of total protein was loaded on MSD 96-Well MULTI-SPOT plates and the level of total and phosphorylated IGF-1R, IR-A and IRS-1 protein was determined using the Insulin Signaling Panel (total protein) and Insulin Signaling Panel (phosphoprotein) Whole Cell Lysate kits according to the manufacturers protocol. The level of total and phosphorylated AKT was determined using the Phospho (Ser473)/Total AKT Assay Whole Cell Lysate kit according to manufacturer's standard protocol.
# [16] = RD-ES tumors ~400 mm^3, single dose, 4 hr after dosing
# [17] = RD-ES-bearing mice injected with human IGF-1/-2, MEDI-573 pretreatment
molecule,measurement,setting,value
B1,autophosphorylation of pAKT in tumors,"[1]; KHOS/NP tumors, single dose",not in KHOS/NP tumors
same,autophosphorylation of pAKT in tumors,[1]; [16],inhibited autophosphorylation
same,IGF-induced pAKT in tumors,[1]; [17],dramatic reduction
same,phosphorylated p4EBP1 in tumors,"[2]; KHOS/NP tumors, single dose",not in KHOS/NP tumors
same,phosphorylated p4EBP1 in tumors,[2]; [16],inhibited
same,p4EBP-1 in tumors,[2]; [17],inhibited p4EBP-1 even below the baseline level
same,IC50 (μM),[3],Inactive
same,IC50,[4],3.2 µM
same,IC50,[5],6.9 µM
same,IC50 (μM),[6],Inactive
same,IC50,[7],2.7 µM
same,IC50,[8],3.2 µM
same,IC50 (μM),[9],Inactive
same,IC50 (μM),[10],Inactive
same,free IGF-1 in tumors,[11],dose-dependent suppression
same,growth of implanted tumors,[12],significantly inhibited the growth
same,IGF-1 and IGF-2-stimulated phosphorylation of IGF 1R,[13],inhibited
same,decrease in cell viability,[14],56%
same,autophosphorylation of IGF-1R,"[15]; RD-ES, TC-71, SK-ES-1, and SJSA-1 cells",inhibited autophosphorylation
same,IGF-1/-2-induced activation of IGF-1R,"[15]; pretreatment with MEDI-573, exogenous IGF-1 or IGF-2",inhibited
